The values below come from article PMC6365017 (Journal of molecular biology, 2018).

Residue numbers refer to the chain shown, from its start. Names may count otherwise.

A word on the Kd: it is the concentration at which binding is half-saturated. Read a high Kd as lower affinity. Usually Km stands for the substrate concentration at which the rate is half of its maximum. For orientation: kcat means the number of substrate molecules converted per active site and unit of time at saturation. What is called kcat/Km is the second-order rate constant that governs catalysis at low substrate concentration.

The target of series [1] is T1, ZmALDH12 (Zea mays, UniProt A0A2H4PMI3). Put plainly: microscale thermophoresis. In kind it is binding. A general note: Microscale thermophoresis detects binding through changes in fluorescence in a small temperature gradient.
Series [2] concerns the target ZmALDH12 (Zea mays, UniProt A0A2H4PMI3, C330A). Kind of series: microscale thermophoresis. In kind it is binding.
Series [3] deals with T1, ZmALDH12. Kind of series: microscale thermophoresis, label-free. The format is binding.
Substrate in series [4]: O=C[C@H](O)COP(=O)(O)O
Put plainly: NADH formation, spectrophotometry/fluorescence. In kind it is biochemical, Zea mays. The following applies: 3.0 mM NAD+, 100 mM pyrophosphate pH 7.5, 30 °C.

Substrate in series [5]: N[C@@H](CCCC=O)C(=O)O
Put plainly: NADH formation, spectrophotometry/fluorescence. The format is biochemical, Zea mays. The following applies: 3.0 mM NAD+, 100 mM pyrophosphate pH 7.5, 30 °C.

Substrate in series [6]: NC(CCC=O)C(=O)O
Kind of series: NADH formation, spectrophotometry/fluorescence. In kind it is biochemical, Zea mays. Conditions: 3.0 mM NAD+, 100 mM pyrophosphate pH 7.5, 30 °C.

Substrate in series [7]: O=CCCCC(=O)O
Kind of series: NADH formation, spectrophotometry/fluorescence. In kind it is biochemical, Physcomitrium patens. The following applies: 3.0 mM NAD+, 100 mM pyrophosphate pH 7.5, 30 °C.

Substrate in series [8]: NC(CCC=O)C(=O)O
Kind of series: NADH formation, spectrophotometry/fluorescence. The format is biochemical, Physcomitrium patens. Conditions: 3.0 mM NAD+, 100 mM pyrophosphate pH 7.5, 30 °C.

Substrate in series [9]: N[C@@H](CCCC=O)C(=O)O
Kind of series: NADH formation, spectrophotometry/fluorescence. The format is biochemical, Physcomitrium patens. Conditions: 3.0 mM NAD+, 100 mM pyrophosphate pH 7.5, 30 °C.

Turning to `O=CCCCC(=O)O` [GRSAL], binding on ZmALDH12 [1] was characterised by a dissociation constant (Kd) of 34 ± 11 µM.
The same measure, in the same setting: to `NC(=O)c1ccc[n+]([C@@H]2O[C@H](COP(=O)(O)OP(=O)(O)OC[C@H]3O[C@@H](n4cnc5c(N)ncnc54)[C@H](O)[C@@H]3O)[C@@H](O)[C@H]2O)c1` [NAD^+] belongs 186 ± 25 µM.
For the molecule `NC(CCC=O)C(=O)O` (racemic) [GSAL], the values for the Kd at ZmALDH12 [1] and on ZmALDH12 [2] were 166 ± 14 µM and 315 ± 48 µM, respectively.
Consider `N[C@@H](CCC(=O)O)C(=O)O` [glutamate], for which binding at ZmALDH12 [3] was characterised by a dissociation constant (Kd) of 3100 ± 300 µM.

B1: ZmALDH12 (Zea mays) (protein)
chain: APFACVSRWLHTPSFATVSPQEVSGSSPAEVQNFVQGSWTASANWNWIVDPLNGDKFIKVAEVQGTEIKSFMESLSKCPKHGLHNPLKAPERYLMYGDISAKAAHMLGQPTVLDFFAKLIQRVSPKSYQQALAEVQVSQKFLENFCGDQVRFLARSFAVPGNHLGQRSNGYRWPYGPVAIITPFNFPLEIPLLQLMGALYMGNKPVLKVDSKVSIVMEQMIRLLHDCGLPAEDMDFINSDGAVMNKLLLEANPKMTLFTGSSRVAEKLAADLKGRVKLEDAGFDWKILGPDVQEVDYVAWVCDQDAYACSGQKCSAQSVLFMHKNWSSSGLLEKMKKLSERRKLEDLTIGPVLTVTTEAMIEHMNNLLKIRGSKVLFGGEPLANHSIPKIYGAMKPTAVFVPLEEILKSGNFELVTKEIFGPFQVVTEYSEDQLELVLEACERMNAHLTAAIVSNDPLFLQDVLGRSVNGTTYAGIRARTTGAPQNHWFGPAGDPRGAGIGTPEAIKLVWSCHREIIYDVGPVPESWALPSAT
Turning to B1, in series [4], the Km came to 1860 ± 99 µM, the kcat is 0.4 ± 0.1 s⁻¹ and the kcat/Km came out at 210 ± 20 M⁻¹ s⁻¹. In series [5], the Km turned out to be 173 ± 12 µM, the kcat is 0.04 ± 0.02 s⁻¹ and the kcat/Km turned out to be 200 ± 20 M⁻¹ s⁻¹.

B2: ZmALDH12 (Zea mays; K329A) (protein)
chain: B1 chain with K313A
B2: in series [6], the Km was determined as 958 ± 47 µM and the kcat is 0.26 ± 0.01 s⁻¹.

B3: PpALDH12 (Physcomitrium patens) (protein)
chain: SSTLLSDHRPQSSLSFASCDADKLSEAHQYQMHNLVQGKWEQTSKSIELLDPLNGEKFISVPDTSIDEISPFVQSLRACSKSGLHNPLKNPERYLLYGDIMAKAAHLLKQPQVETFFARLIQRVAPKSFAQAVGEVTVTQKFLENFSGDQVRFLARSFVVPGNYQGQQSNGMRWPYGPVAIITPFNFPLEIPALQALGALFMGNKPILKVDSKVSIVMEQFIRLLHKCGMPPTDMDFINSDGPVMNKLLLEAEPKTTLFTGSSKVAEKLALDLKGRVKLEDAGFDWKILGPDVQNEDYVAWVCDQDAYACSGQKCSAQSILFMHENWANQNFLERLKKLASKRKLEDLTVGPVLTVTTERMLDHVKNLLAIPGARVEFGGKPLTNHTIPDVYGALEPTAVFVPLKEILRNEENFALATTEIFGPFQILTEYKHEDLPLVFEACERMHAHLTAAVVSNDVHFLQEVLSNTVNGTTYAGIRARTTGAPQNHWFGPAGDPRGAGIGTPEAIKLVWSCHREIIQDVGPIPNGWSTPQCT
As to B3, in series [7], the Km was 82 ± 6 µM, the kcat worked out at 0.3 ± 0.02 s⁻¹ and the kcat/Km amounted to 3700 ± 600 M⁻¹ s⁻¹. For the same molecule, in series [8], the Km was 228 ± 40 µM, the kcat amounted to 0.44 ± 0.05 s⁻¹ and the kcat/Km turned out to be 1900 ± 600 M⁻¹ s⁻¹. In [9], the Km is 211 ± 13 µM, the kcat came to 0.005 ± 0.001 s⁻¹ and the kcat/Km stood at 26 ± 2 M⁻¹ s⁻¹.
